From paper PMC12578637, “Structure of a distinct β-barrel assembly machinery complex in the Bacteroidota” (Nature Microbiology, 2025)

T1: BtBamA (Bt3725), B. thetaiotaomicron BamA with N-terminal His7 tag (B. thetaiotaomicron, UniProt Q8A1E1 20-885)
T1 sequence (looked up): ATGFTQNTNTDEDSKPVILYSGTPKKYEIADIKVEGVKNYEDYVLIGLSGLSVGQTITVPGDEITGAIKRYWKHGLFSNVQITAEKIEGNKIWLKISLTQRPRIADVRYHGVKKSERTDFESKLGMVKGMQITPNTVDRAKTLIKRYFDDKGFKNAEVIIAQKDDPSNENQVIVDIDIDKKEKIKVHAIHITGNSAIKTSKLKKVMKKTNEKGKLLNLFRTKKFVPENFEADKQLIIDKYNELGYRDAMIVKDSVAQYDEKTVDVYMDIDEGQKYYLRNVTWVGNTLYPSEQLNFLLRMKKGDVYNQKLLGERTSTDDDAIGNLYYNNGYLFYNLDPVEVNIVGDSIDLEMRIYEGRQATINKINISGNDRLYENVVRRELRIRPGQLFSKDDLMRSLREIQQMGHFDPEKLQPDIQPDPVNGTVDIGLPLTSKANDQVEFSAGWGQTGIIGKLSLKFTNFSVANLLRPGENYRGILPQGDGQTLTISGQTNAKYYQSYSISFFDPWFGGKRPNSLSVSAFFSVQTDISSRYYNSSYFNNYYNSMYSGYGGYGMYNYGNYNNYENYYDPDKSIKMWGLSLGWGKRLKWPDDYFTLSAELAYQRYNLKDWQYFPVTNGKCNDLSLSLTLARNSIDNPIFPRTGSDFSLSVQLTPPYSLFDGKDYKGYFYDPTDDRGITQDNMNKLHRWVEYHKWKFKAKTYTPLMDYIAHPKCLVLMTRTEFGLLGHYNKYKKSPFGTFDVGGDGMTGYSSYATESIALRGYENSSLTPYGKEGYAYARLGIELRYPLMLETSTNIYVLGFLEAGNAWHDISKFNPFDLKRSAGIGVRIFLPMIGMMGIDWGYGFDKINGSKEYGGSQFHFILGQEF

T2: BtBamI (Bt3727) (B. thetaiotaomicron (endogenous in B. …, UniProt Q8A1D9 22-493, lipid anchor cysteine)); O-glycosylation at 10 sites (Ser67 among them))
T2 sequence (looked up): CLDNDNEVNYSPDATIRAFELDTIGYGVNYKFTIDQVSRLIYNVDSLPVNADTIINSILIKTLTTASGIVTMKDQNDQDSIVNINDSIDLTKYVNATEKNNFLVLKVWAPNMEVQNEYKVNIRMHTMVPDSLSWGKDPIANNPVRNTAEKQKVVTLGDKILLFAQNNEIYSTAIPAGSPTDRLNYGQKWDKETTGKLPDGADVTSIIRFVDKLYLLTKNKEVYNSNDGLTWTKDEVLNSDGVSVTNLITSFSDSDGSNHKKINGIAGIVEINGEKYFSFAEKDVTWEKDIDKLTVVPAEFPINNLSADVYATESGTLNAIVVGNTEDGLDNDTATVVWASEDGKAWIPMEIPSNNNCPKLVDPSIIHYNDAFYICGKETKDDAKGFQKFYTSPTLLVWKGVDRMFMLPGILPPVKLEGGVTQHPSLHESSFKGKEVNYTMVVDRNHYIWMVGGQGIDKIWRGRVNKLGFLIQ

B1: BtBamH (Bt4306) (natural protein, UniProt Q89ZS0 18-542, looked up)
chain: CDDNTGGLGLGMFPGNDQNIKGKLSTFDVTTESVKTGDIYAKTNIGYIGKFTDETFGTYQAGFLAQLNCPDGLTFPEPYKEVTDASGNVISATGRMVVDDKDPENKDVTFIKDGNQIIGNIRAVELYLWYDSYFGDSLTACRLSVYELGGNGKETLNLDNAYYTDINPEDFYDSQNILGTKAYTAVDLSVKDSIRNLSTYVPSVHIAFKEDIATRVGGNILTAARKAKNADKEFNSQLFREAFQGIYVKSDYGDGTVLYIDQPQMNVVYKCYATDSITGKKLQKKDGSGKDSTYYSYRVFATTREVIQANQLKNDPERIDALIKEDKNTYLKSPAGIFTEATLPISDIQNELTGDTLNAVKLTFTNYNQTGDKKFGMAIPSTVMLVRKKFQDSFFKDNKLSDGVSSYLTSHTSSTNQYVFSNITKLVNACIAEKEEAKKNAGSSWDETKWLQENPDWNKVVLIPVLVTYDSSNTTTGQANIIRIQHDLKPGYVRLKGGSLGKTNPDYKLKLEVISTDFGLTTKSN
modifications: tri-acylated lipid anchor on the N-terminal cysteine; O-glycosylation (Ser309 among the sites)
B2: BtBamJ (Bt3612) (natural protein, UniProt Q8A1P7 20-196, looked up)
chain: CSETEEVGKYDNWRARNEAFIDSLANVYATASGRGGLERIEMLTAPGNYIYYKEMEPMTDHVVKAGNPKYTDYVKVYYKGTNILGEYFDGNFKGDNPVVDGKDPSEGDSPTTIFQVSGVITGWGEVLQRMEVGDRWKVYIPWDYAYGSSGTTGILGYSALVFDITLLDFANTEAELK
modifications: lipid anchor cysteine; O-glycosylation sites

Columns and labels:
Experiment in all cases: cryo-EM structure; BtBAM complex co-purified through BamAhis from native membranes, in DDM, 8 mg/ml; two 3D classes (3.28 Å and 3.46 Å); AF2 models docked and refined
Conditions in all cases: both partners purified
[1] = molecular target: T1, BtBamA (Bt3725), B. thetaiotaomicron …
BtBamI (Bt3727) = molecular target: T2, BtBamI (Bt3727)
BtBamH (Bt4306) = molecular target: B1

Row | Binder | binding result [1] | binding result (BtBamI (Bt3727)) | binding result (BtBamH (Bt4306))
1 | B1 | binds |  | 
2 | B2 |  | binds | binds
